Assay results: patent US5891661A, “Low temperature assay for active HCMV protease in dimeric form” (Merck & Co., Inc., priority 1997, dated 1999)

Legend:
HCMV protease [1] = assay: Dependence of protease specific activity on temperature, enzyme and glycerol concentrations (dilution); type: biochemical, human cytomegalovirus
Procedure: Dependence of Protease Specific Activity on Enzyme and Glycerol Concentrations
Dilution of a concentrated solution of HCMV protease produces a time-dependent change in activity to a new, lower level. The rate and extent of the change in protease activity is a function of temperature. […] At temperatures above 20° C., the change in activity (t1/2 ≤30 min) upon enzyme dilution is such that an accurate assessment of activity requires a rapid assay (ca. 1 min).
The specific activity of the HCMV protease increases at higher enzyme and glycerol concentrations. […] It can be shifted back to the higher activity seen for 20% glycerol by addition of an equal volume of buffer containing 30% glycerol to produce a solution containing 20% glycerol, followed by further incubation. Thus, the dependence of HCMV protease activity on enzyme and glycerol concentrations is reversible.
The dependence of HCMV protease activity on enzyme concentration can be interpreted in terms of a monomer-dimer equilibrium wherein only the dimeric form of the enzyme is active.

HCMV protease [2] = assay: Analytical centrifugation, velocity sedimentation of HCMV protease; type: physicochemical, human cytomegalovirus; conditions: 20 mM (monomer equivalents), 20° C.
Excerpt: Analytical Centrifugation
The quaternary state of the HCMV protease was characterized by sedimentation velocity measurements. […] An approximate solution of the Lamm equation fits directly to the data to obtain the sedimentation coefficient, S20,w, the diffusion coefficient, D20,w, and by use of the Svedberg relation, the molecular weight. For both samples good fits are found for a single sedimenting species. In the absence of glycerol the molecular weight obtained is 29.7 kDa which is close to the molecular weight of a monomeric HCMV protease. […] The increase in S20,w and the decrease D20,w shown in Table 1 are both consistent with the existence of a stable dimeric protease in 20% glycerol.
^α Samples were loaded at 20 mM (monomer equivalents) and
sedimentation was conducted at 20° C. Data shown in brackets are
the 95% confidence limits.

HCMV protease [3] = assay: Activity assay of eluted size exclusion peaks at 0° C.; type: biochemical, human cytomegalovirus
Procedure: Assignment of the early (55 kDa) and late (33 kDa) elution peaks in FIG. 1 as dimer and monomer, respectively, allows the estimation of a Kd for dimerization. […] The maximum fraction of dimeric protease extrapolated from FIG. 2 is 0.92. In separate experiments using protease at a loading concentration of 100 mM, the maximum fraction of dimeric protease is more than or equal to 0.95. […] The same analysis applied to enzyme pre-equilibrated in 10% glycerol produces a […]

HCMV protease [4] = assay: Kinetic assays of monomeric form; type: biochemical, human cytomegalovirus; conditions: ambient or higher temperatures
Procedure: For this reason, the activity of this protease has been erroneously believed to be very low. […] This physiochemical phenomenon is governed by thermodynamic principles. Due to the high activation energy required for dissociation, the HCMV protease can be "frozen" in its active, dimeric form at about 0° C., thus enabling sensitive detection of inhibitors of this enzyme. […] The existence of the HCMV protease has been reported, e.g., see Pinko, et al., J. Biol. Chem. 270, 23634 (1995). Assays for the catalytic activity of this enzyme have been described, albeit the reported kinetic parameters were substantially lower than those measured by applicants. […] This approach affords an assay for the activity of the protease at low concentration (≤20 nM), thus permitting detection of weak inhibitors or strong inhibitors at low concentration.

wild-type HCMV protease = assay: Stability of purified wild-type enzyme at pH 5.5 and return of activity at pH 7.5; type: physicochemical, human cytomegalovirus
Procedure: The wild-type HCMV protease was purified similarly. To avoid self-proteolysis, the protein obtained from the first anion exchange step was folded and dialyzed as above, but in the absence of glycerol. The sample was then acidified to pH 5.5 with MES, applied to a cation exchange column in 50 mM MES, 1 mM EDTA, 1 mM DTT, pH 5.5, and eluted with a sodium chloride gradient. […] Enzyme preparations were greater than 95% pure by SDS PAGE and gave the expected amino acid analysis. The N-terminal 5 residues of both enzymes were MTMDE, showing retention but defonnylation of the initial N-formyl methionine. Electrospray mass spectrometry indicated a single species within 10 a.m.u. of the expected mass. The concentrations of stock enzyme solutions were determined by quantitative amino acid analysis.

## HCMV protease: N-terminal 256 amino acid protease domain of HCMV strain AD169, recombinantly expressed in E. coli
HCMV protease [1]; 0° C.
  change in protease activity upon dilution: no significant change is observable for a period of hours
HCMV protease [1]; 10% and 20% glycerol samples
  time for active form of the enzyme to reach equilibrium after dilution: ≤ 1.5 h
HCMV protease [1]; 10% vs 20% glycerol (v/v)
  activity in 10% glycerol compared with 20% glycerol: lower than that incubated in 20% glycerol
HCMV protease [1]; 37° C.
  decrease in protease activity upon dilution: occurs within minutes
HCMV protease [1]; after dilution, incubations of 1.5 hr and 3.5 hr
  specific activity as enzyme concentration is lowered: tends toward zero as its concentration is lowered
HCMV protease [1]; temperatures above 20° C.
  t1/2 of change in activity upon enzyme dilution: ≤ 30 min
HCMV protease [2]; 0% glycerol
  diffusion coefficient D20,w: 8.34 cm^2 10^7
  sedimentation coefficient S20,w: 2.78 S
HCMV protease [2]; 20% glycerol (v/v)
  diffusion coefficient D20,w: 6.57 cm^2 10^7
  sedimentation coefficient S20,w: 3.59 S

## dimer: early (55 kDa) elution peak of HCMV protease, dimeric form
HCMV protease [3]
  hydrolytic activity in eluted dimer peak: more than 50 -fold of detectable levels

## monomer: late (33 kDa) elution peak of HCMV protease, monomeric form
HCMV protease [3]
  activity in eluted monomer peak: no detectable activity
HCMV protease [4]
  activity of monomeric form as gauged by kinetic assays: inactive

## wild-type HCMV protease: recombinant wild-type HCMV protease
wild-type HCMV protease; dilution from pH 5.5 to pH 7.5
  return of activity following dilution: returned to full activity
wild-type HCMV protease; pH 5.5
  stability of wild-type enzyme: stable at pH 5.5
